Data as given in patent US20230235069A1 (KYMAB, published 2023).

Molecular target: T1, human OX40 ligand (human, UniProt P23510 51-183, limits assumed)
T1 construct: also called hOX40L; the target
T1 sequence (looked up): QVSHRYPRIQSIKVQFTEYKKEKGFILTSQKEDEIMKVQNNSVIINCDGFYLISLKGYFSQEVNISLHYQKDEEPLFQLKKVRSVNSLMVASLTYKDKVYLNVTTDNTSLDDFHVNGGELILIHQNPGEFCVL
Assay: PK ELISA of KY1005 in human serum on coated human OX40 ligand

binding result: binds
B1: KY1005 (antibody, human IgG4 S228P, kappa, V domains shown)
VH: EVQLVESGGGLVQPGGSLRLSCAASGFTFSNYAMNWVRQAPGKGLEWVSTISGSGGATRYADSVKGRFTISRDNSRNTVYLQMNSLRVEDTAVFYCTKDRLIMATVRGPYYYGMDVWGQGTTVTVSS
VL: DIQMTQSPSSLSASVGDRVTITCRASQSISSYLNWYQQKPGKAPNLLIYAASSLQSGVPSRFSGSGSETDFTLTISSLQPEDFATYYCQQSHSVSFTFGPGTKVDIKR
notes: also called 2D10; 02D10
